This is an account of results in the NTF2 design screens of Basanta et al. (2020).

This series is described as follows: protease stability score; higher = more stable; yeast display proteolysis, trypsin and chymotrypsin.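 Also: relative to predicted unfolded state with 0 unfolded-like and 1 meaning tenfold more protease.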
“REDDERIDEMVELIFHWEQTGDEEKVYNNMDPHVRIDYNGRELHGWKKFTEELRLIYEEMRLKHIHISHQTIQGEKAIVHVELEGQVGDKRYIHRREIIVLKIDGKWIIKMVRFV”: the protease stability score came to 1.49. On to “REDEDAVREWALKFLESSLTGDEHFLKNLMDPHARLVIGDKHFHGREEVVRTWREFLTKFKNVRHDLHDINIQGDKVDVVENLVFDGVRTRTRITMRKVDGRWVITDIVIE”, for which the protease stability score was determined as 2.08. The figure for “REDEEFAIHMFLNLIRWLMTGDEEQLEELADPDTKYHQGDKTLHGREEFLKWFHLMHKWLGIKHIEMRITDLRAVDGRVESEVSVDEHYDGRTKRYRTIIIVNVVNGKLKSEERHID” is 1.22; for “REDEEHTKELLDAWQEAVETGDEDFILELFDPHVRSQVGDKERHGRHSFLELLRRLLEELGFDHVQFHITHREIQGDKITVETRLIFEYGDKRLEVQVEVEVKKINGRWYIHSVRWK” it is 1.87; for “REDEEITHKLLELLLTVIRTGDEQEMLNLLDPNTRHDVNGKHLHGRETAHRLFHEWSRHMRIHDLEIHDEKKIGNKVHIDGRLDGHIDGKREKIEVEFVIVKIDGRWVINSMTIK” it is 0.931. As for “REDEELVKQVVKDFDHAVETGDEDRLRELLDPDVRISQGDKEFHGREDYELHLRQWRYENHRVHDVRIYGDKARIHGHLHLKIGDKHLEVETILILHKVNGRWRVRHLEIR”, the protease stability score came to 1.83.

“REDEEMAEKISEFIFHVLETGDEKSNHENIDPNARTHIGDKHSHGRENVTRMMDWWMHFLGVKHIEKKDLEIQGNFAFLHSISVVGDKTFEIDVTALKVNGQWVFKKFQVN” showed a protease stability score of 1.64. The figure for “REDEEMIEHAVRREIHSYYTGDWEKHYKLLDPNALIHIDINGRQENIHGREEIMRFWYERFKDFGFDHMEIKRITLVDGKLHIFSIIDVNGVRIELEIIIVKVDGRWRLHTMRYHYH” is 0.652; for “REDEEQMSRFIKEMIHLLRTGDEDRLHELIDPHTRLDFDGKEIHGREEWSQFLKEIRFRRFEVKDFEIVNGVANVDGKMHGEFDGQRFTTRVHIYNVKINGRWVHKWEEIG” it is 1.32; for “REDEEWLERLLRIIEKAMRTGDEQLTKELFDPNVRLEVGDKIIIGWEELTKIMHEMRVRDSRIHRVRTVGDKVEADTTVNGEIDGREFETEVRIEMLKVDGQWVVDKVHFK” it is 1.89. Under “REDEKFRDYATHWLEKYVRTGDENLMEELIDPDVRVHVNGQENHGMDEMRKWMLELRIEHIIIRRIEIHVYDGVIEINIDSETRVNFNGRKIRTKVHIHTETRKIDGRWSISHLELRFK” stands 1.07; under “REDEKLFEEVLRELVKWLTTGDEKQMRDLFDPNARREVNGVEVHGWEEFLRHVREDRKRYDHVKDIEIHHIDIQGDKLEINVTLVGHIDGKEDVIIFTILLRKVNGKWIVKEIQFH”, 1.52; under “REDEQDLRKFVEDLIHSLKTGDEDSTSRLLDPHVRVEIGDKEFVGREDFTRLMVETVRRYDHIRFDLRRVEDIDGKAHIHGHIYIRVNGVWHHKEVEIIIDKINGKWVIRELRVK”, 2.33.

In turn, “REDEQLFHEMLRRVIHALLTGDEQILADLLDPRMRIMYDGVSRHGWHDFIEVLRDLGFDHLILKDYRIQGDYVRFHFIIEQGDKHHTVEIHVQIWDGKVEQIVVNYR” gave a protease stability score of 2.04.

With “REDEREAEEFLRKLLHDIRTGDEESISRMIDPHVRVIYNGVEVIGRERALEVFKKFLEEIRIDTYHVHKVDMINGKMHADTRLRWEINGQRDTSTMLIVVEKVNGRWFLHSVVIS”, the protease stability score is 1.97. Under “REDERISQIAIEIVEHLIRTGDERVESELADPHMKLRINGVEIHGRERVHDWIHRFVTEFGIDRVEARVHDSHVVNGRIYNDTESHINGKNVKMRWIAIKYNGRWIQTMITFE” stands 1.3; under “REDKKDAEDIIRWLLRAWHTGDPRDVEKMMDPNTLSDINGQKIHGREDVSRFNEFILRHARVEVDVHSMEVYGNYLHVDERFTLRIGDKEIRTETHIIIIKVNGRWLVQTISYG”, 0.782; under “REDVEDFKRFIELEVHAHETGDEDLLRKLLDPHVRVIIDGVTIVGWKALRDLLERFDHYTIHHMHIEDLRIQGDKIIVDLRLDLIFNYNGRHLRVDSHARIIMIKYNGRWYNHSIEFE”, 2.12. In the case of “REEDEIAENLFRLWIKSFLTGDFNTLRKLMDPHVRIHINGQEIHGREDFVRLLWEEFRRLGAKFHIEIKHLDVQGDKVFSEGTLRIEQGNKKDSKSVLIELIVVDGVITEIRMDVR”, the protease stability score was 2.25. Under “REEDEQLKRFTDEFIQVQRTGNEDLLREYADPNVKIVVGDKELHGREEMLYVFREIRVHNSELKRMHIIDGRAEVHVTAHVRQGDKVIEVKLHIIIYKIDGRWVIESMQWE” stands 1.01; under “REEDERDHRISELLFDLWVTGDWEIFHHLADPNVKANINGQETHGREKIMRIMMRMIHEFGFKHIQLEDSTVINGRVHQQIKVRVGDKSEEFNIHHHVVDGKIKHIHIEVR”, 1.36. Regarding “REEDHRSRHLSELWIHLWETGDEETMKKLADPNMRINVNGQEFHGREQATRHIHEFLEKFKNVRLHVENIRIQGEKILIISRAEVDGQELEIHIELIIVDGRIEEVNLHVYRR”, the protease stability score came to 1.46.

In turn, “REEDKEFEDAVKTILHSFLTGDFDLLIKLLDPNVRIRFENVDLVGWSEYLRRLEEFGVKVHRTKRSDIRYINGVAVVIIDGEMEYGDKKTKVELNFVMQKYDGRWRTQSIHEKEH” had a protease stability score of 1.12.

As to “REEDKRAREDVEEWLRWFLTGDEEHLIKYADPNVRVDYGDKDIHGRNEATRIWREFLKHIRIHHVEVSHIKYVGEKVIVDVRLDGEINGRRVITHVEMEIIVVNGVLKSVHINSR”, the protease stability score was 1.21. “REEEDNAEKFWEEFSKSLLTGDEDHMEELADPNARMRINGREKVGREEVRKELSHLFTHIRLKSIHLKDFKFFDGRLDIDGSLDGHINGKRREIEVHVHLWKVNGRWTLETLKIN” came in with a protease stability score of 1.17. “REEEEEAKRFLDIITRSILTGDEDSLSELFDPNTQLHYGDKRFVGRERINEVVKQWRIEDVNLHDVEVQGEWAILDTRVDGNFNGKKRNLETRIITEKVNGRWILKRVEIE” gave a protease stability score of 1.35.

“REEEEEIEEALRQWLTLHETGDFKYLEKLFDPNVKQDVGDKELHGRELFSKFEHELAERIKGVRFRYHYEEIHIFDGRVVLRLDGIWEIGDKSMRVTLIVIMNKFDGRWKLESLHIEYR”: the protease stability score was 1.24. The figure for “REEEEEIRFAEEFWMELEKTGDEHKILRMADPNVRVRIGDKHHHGREHLRRVIEWRLEYAGIDKIEVRLRRVTIINGRVHIDGELIVGDKEHRVEIILVKINGRWILHEFEIR” is 1.5; for “REEEEEMEELVRRIIHLLKTGDEREFNRLLDPDARVDDGDWHDHGREAWNKWSEKLRRDAGHENIEFHVRHFEVINGRIIMETKVHIGDKTLDTRLIFVVINGRLTSVRLEIH” it is 0.037; for “REEEEESQKATEHQLHSLRTGDWRSIERLLDPNTRMEINGVDSVGREYVLELFRRWLEEAGINHIELKSYEVFNGKLEIHSEVHYDGRTIKVINIVIKVNGRWLLHHVHIEDL” it is 0.561.

Turning to “REEEEEVKRNAHITVHILLTGDFHHHSRLFDPHVRSEWNGVELHGMEEDLKWWIELVKHLRFKHFEIHDIRVYDGVADNDINEVIKVNGKDFTFKSSIILIIINGQIRELKFVIN”, the protease stability score amounted to 0.073. Sequence “REEEEHAEKVVKLMLHWLHTGDEEKFINNADPNVKLQIDGQRIHGWDDWERRMNEKLQRVDYIDNVVIRHIDNQGDKAIFHGELRGIQGDKHFTFHVELRIRVVNGVIHEMEIIIR” returned a protease stability score of 2.05. For “REEEEHAEYVIRVWERLLETGDEHEVARLLDPEVRLNIDGVDIHGREDIIRWLKHIRIEIEDSDHKRIEVQGEKIHLDGHRKEVIHVGDKKIRREHRIKLELVWIDGKITSLNVVLH”, the protease stability score was 1.24. Under “REEEEHAHRIFEILVRLWLTGDEDTYLNLADPHDLIEIDQGDKRDENHGRESAFHLWEWFLREMRIKRMILRDERVQGEKLEFDVEVRGNINGVDLRFRVHIIIVVINGRFKSSKVILN” stands 0.759; under “REEEEHARRLVEMYFHALLTGDEDLLKSLLDPNVKLQIGDKVHVGREELIRSLRELWDKLGIDHITLEEYRIEIQGNKIRLKLYMHLHVNGRLLQVTTDILVDKVDGRWVIQEIRVHEA”, 1.91; under “REEEEHLERVMSLILLIMSTGDFKTLSELFDPHARLRVGDKHLIGWSFVADWIVKFKNMQLRHHRRHVVNGVVEVEDEFRVGDKRFTLRLLFLVVDGVVKEVHIEIEDR”, 0.833. Under “REEEEHLKKFIEDHIRDLRTGDEQKVADQADPHVRTRFNGVDYHGREDHMKLMKHIRFEEMRIEDVKVQGDKAHIDSIITIEVDGQRETIKVHIIIVKIDGRWLLKQSHFN” stands 0.396; under “REEEEISKNIAELFEHTLRTGDEKLFLKLADPHVKNEQGEFDSVGREEWHRQFREILNKWGVDRIHSQERRFTDYDGRLEMHVEMRFNGKRVEVRMRVEKYDGRWILTELHIRIE”, 0.655. “REEEELLKKLADHWWENVRTGDERRMRELFDPNTQFVIEVGDKKFTRHGRDELVHSLEHARIHDFHIKDQRPQGDFIEVEGEIDGEIDGRRFRTDVRVWIVIVNGRLKQIHIHVG” came in with a protease stability score of 1.15. In the case of “REEEELMKEIARRVIESHYTGDEDWWLELADPNVQVHVGDKRKVGREHALHLLHIFHKHLGVDHLHLRHVHVQGDWIEIEMDLNINGKIREMRVFVTVIDGRLDSINIDIK”, the protease stability score was 1.27. Take “REEEENMRHFYKLMEHSLHTGDEDTLRRLFDPDARILIDGREHHGMEFILQLLHHIRLRVHDTKIEDIEHQGEWLHMHTRIDIYYNVDGQEVRVDTNVRLHAHKVDGRWFVRSYERG”: the protease stability score was determined as 0.748. Sequence “REEEEQLKHFIEHRLHNFLTGNEERLHHLADPNMRIDINGKELHGREAYIYEFNRLGWEIKHIDIEHLEVQGDKVDVDLRFKGHIDGKTRHIKSKLIVLKVDGKWFDKDYFII” gave a protease stability score of 1.13.

For the sequence “REEEERLKDLERVMRELWRTGDEREMSRNADPHVKLSVGDKEFHGRELFTKWASRVDHYDHLIIRDIETQGDKVRMYVETEMDIDGKDVKTESFILAVKIDGRWILRSLELR”, the protease stability score came out at 0.387.

“REEEERVEHLARLVFRALMTGDEDEYKHLADPDDRLILVINGRRQEFHGMEVVLEWLRHLLKEIRIHHSHIHDVKVIGDKVDFDTSVDVEYNGQRHWRKMRVIIIIVNGRYRSVEIILE”: the protease stability score was determined as 2.26. Take “REEEETLDRAIREMLRNMRTGDEHRMRELMDPNVRAHINGREIHGREEVVRHLVEWLKRVDHIEFKLEHQVVYGEKIDLDTRVTIRVNGVELRHKTHQRVHKIDGKWVLDELEIS”: the protease stability score was 2.05. The figure for “REEEEVVREIARRVIKSWITGNEHDMQEFADPHVRIFIGDKEIIGMEILNEILHRIKNITIRINMRHVDVQGDKVDLEGELEIRVNGQTERHDSRHHFDVVNGRIKIIEIQWD” is 0.918; for “REEEEYRHHVLRRWLEIWETGDEEAEAKNVDPNARMHVNGVDLHGRETIIHFLEEYMRKVKGVQERNDKVHLQGEFTHLTGRVLINGRWKEVTIQLLIINGRHHYLRIIIE” it is 0.898.
